Consider 73 sequences from the supplement of paper PMC10567573.

± gives the standard deviation.

The series in a line: protein stability index of a GFP-peptide fusion (GPS, HEK-293T) (PSI 1-6); higher = more stable. The following applies: c terminus: a fixed tail appended.
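Further: 24-mer peptide tiles fused after GFP, lentivirally expressed, FACS-sorted into six equal bins by GFP/DsRed ratio, decoded by Illumina sequencing, PSI is the read-weighted mean bin number.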

As to ILNFNDLMSSAVPMTPEDPSFWDC [AASDHPPT], the protein stability index runs as follows: (treatment: DMSO) 2.71 ± 0.31; (treatment: MLN4924 1 uM, 8 h) 2.92 ± 0.2. With PVAQSTDGIRGKVGHARGLHAWQI [SPSB4], the protein stability index (treatment: DMSO) worked out at 2.68 ± 0.37 and the protein stability index (treatment: MLN4924 1 uM, 8 h) was 2.84 ± 0.29. On to TSIVYATEKKQTKVEFPEARIYEE [KCTD10], for which the protein stability index was 4.5 ± 0.12 (treatment: DMSO) and 4.21 ± 0.55 (treatment: MLN4924 1 uM, 8 h).

Sequence ENYLNRCMDQERLRRESTSQKEMD [FCHO1] gave a protein stability index (treatment: DMSO) of 4.24 ± 0.28 and a protein stability index (treatment: MLN4924 1 uM, 8 h) of 4.56 ± 0.3. For PETAHPNLVLSEDRKSVKFVETRL [TRIM39] the same measures were 4.04 ± 0.45 and 4.15 ± 0.16. For INSDTGVLYALRSFDYEQFHELQM [PCDHGA10] the same measures were 2.2 ± 0.2 and 2.35 ± 0.29.

Regarding EAASSSSTLVEVTLGEVPAAESPD [MAGEA3], the protein stability index reads like this: (treatment: DMSO) 5.41 ± 0.15; (treatment: MLN4924 1 uM, 8 h) 5.49 ± 0.12. For SKDNMRTRIMIGLTLVFFVQITGQ [SLC2A12] the same measures were 2.55 ± 0.6 and 3.4 ± 0.17. Turning to LEAELLQIEERHQEKKRKFLESTD [SMARCE1], the protein stability index by setting is: (treatment: DMSO) 4.89 ± 0.69; (treatment: MLN4924 1 uM, 8 h) 5.04 ± 0.24. Sequence FIEGYCTPEEVIWEALNMMGLYDG [MAGEA10] registered a protein stability index (treatment: DMSO) of 2.48 ± 0.24 and a protein stability index (treatment: MLN4924 1 uM, 8 h) of 2.17 ± 0.26.

The sequence AYAHPQQKVAVYRALQAALAESGG [TRADD] displayed a protein stability index (treatment: DMSO) of 2.43 ± 0.51 and a protein stability index (treatment: MLN4924 1 uM, 8 h) of 2.65 ± 0.34. Regarding WVGTGLAAALAGLVGLATAAFGHV [CPOX], the protein stability index is, setting by setting: (treatment: DMSO) 2.13 ± 0.37; (treatment: MLN4924 1 uM, 8 h) 2.16 ± 0.3. PVYRRDCHEEVYAGSHQYPGRGVY [ACBD3]: the protein stability index reads like this: (treatment: DMSO) 2.89 ± 0.29; (treatment: MLN4924 1 uM, 8 h) 3.03 ± 0.2. On to SWFDNGSICMRMEILGCPLPDPNN [CPXM2], for which the protein stability index is 2.09 ± 0.089 (treatment: DMSO) and 2.3 ± 0.47 (treatment: MLN4924 1 uM, 8 h). IAGGLAGMGGIQNEKETMQSLNDR [KRT18]: the protein stability index by setting is: (treatment: DMSO) 4.83 ± 0.24; (treatment: MLN4924 1 uM, 8 h) 4.81 ± 0.33.

Where the note is “treatment: MLN4924 1 uM, 8 h”, VPVSFIFIFTFVKKKKIGFYFEVC [PCDHGA10] came in with a protein stability index of 1.82 ± 0.39. In the case of ETTSQQERLQAIAEKRKRQAEIEN [PALM], the protein stability index was determined as 4.94 ± 0.14 (treatment: DMSO) and 5.06 ± 0.12 (treatment: MLN4924 1 uM, 8 h). Turning to SGSESPSDSGKDLPEPSKRGPPHG [MYCL], the protein stability index amounted to 5.4 ± 0.24 (treatment: DMSO) and 5.32 ± 0.12 (treatment: MLN4924 1 uM, 8 h).

In the case of WLQNTHVYSWPKNKKNILLRLLRE [TRAF3IP2], the protein stability index amounted to 2.08 ± 0.58 (treatment: DMSO) and 2.38 ± 0.42 (treatment: MLN4924 1 uM, 8 h). For SFMTWLRSYIKLFQAPCQRCGKFL [MED27] the same measures were 2.6 ± 0.31 and 2.48 ± 0.18.

As for QQAGLLVTGEKEEPSRSASEADSE [PPEF2], the protein stability index was 5.613 ± 0.041 (treatment: DMSO) and 5.56 ± 0.16 (treatment: MLN4924 1 uM, 8 h). For PYGPPPDAVQTSLMDEGASSEKKR [RBBP5], the protein stability index is, setting by setting: (treatment: DMSO) 5.37 ± 0.25; (treatment: MLN4924 1 uM, 8 h) 5.463 ± 0.047.

Consider NSQVHRETEDVDYGETDFHKQDGK [TMEM40], for which the protein stability index runs as follows: (treatment: DMSO) 5.54 ± 0.12; (treatment: MLN4924 1 uM, 8 h) 5.52 ± 0.17. In the same order, the values of AEFQLVRDVVLCSLLNFLPEGVNK [TENT5C] are 2.37 ± 0.7 and 3.07 ± 0.85. For HDPLYGKLFSTYLRPPHTSRGTSQ [LPCAT4] the same measures were 3.27 ± 0.34 and 3.76 ± 0.21. In the same order, the values of AAGQRSRPSTYYELLGVHPGASTE [DNAJC4] are 3.58 ± 0.32 and 3.71 ± 0.23. As to ALCMLAQSSPSFAEKCLDFLVDMF [INTS4], the protein stability index by setting is: (treatment: DMSO) 1.86 ± 0.1; (treatment: MLN4924 1 uM, 8 h) 2.35 ± 0.064. For LQDGNLRAPHKESTLPRSGSSGGQ [CHCHD6] the same measures were 5.03 ± 0.12 and 4.95 ± 0.31. For LESPIDPQPLSFKEPPLLLGVLHP [APMAP] the same measures were 3.43 ± 0.31 and 3.69 ± 0.24. For GAGRRRRAGGPPRPMSEPGAGAGS [SMAD6] the same measures were 5.22 ± 0.41 and 5.21 ± 0.14. For the sequence VHGIRSVGTAAVNMCLVATGGADA [IMPA1], the protein stability index is 2.78 ± 0.35 (treatment: DMSO) and 2.93 ± 0.39 (treatment: MLN4924 1 uM, 8 h). In turn, LLEATGGAAGRSHHLDEDEERERI [KCTD10] returned a protein stability index (treatment: DMSO) of 5.25 ± 0.25 and a protein stability index (treatment: MLN4924 1 uM, 8 h) of 5.41 ± 0.35.

In turn, HEEQLQRLKLLKDREVDAATSATS [FBF1] registered a protein stability index (treatment: DMSO) of 5.18 ± 0.28 and a protein stability index (treatment: MLN4924 1 uM, 8 h) of 5.25 ± 0.24. In the same order, the values of LKLYEQWKNFDERKEMATILSKMP [CCNC] are 2.61 ± 0.59 and 2.62 ± 0.41. For ERKGWLAPSPGVKEQAIWKHPQPA [PKD2L1] the same measures were 3.52 ± 0.21 and 3.73 ± 0.41. Consider EKRLEGQEEEEDNRDSSMKLSFRA [CHGA], for which the protein stability index by setting is: (treatment: DMSO) 5.1 ± 0.75; (treatment: MLN4924 1 uM, 8 h) 5.19 ± 0.38.

QDIAQEISEAFSQRVGFGDDFDED [CHMP4C] gave a protein stability index (treatment: DMSO) of 5.62 ± 0.21 and a protein stability index (treatment: MLN4924 1 uM, 8 h) of 5.5 ± 0.18.

On to FCQTDQTCICYLCMFQEHKNHSTV [TRIM29], for which the protein stability index was determined as 2.2 ± 0.085 (treatment: DMSO) and 2.66 ± 0.32 (treatment: MLN4924 1 uM, 8 h).

Turning to SPVTTSPTAATTQNPVLSKLLMAD [LCOR], the protein stability index came to 4.536 ± 0.031 (treatment: DMSO) and 4.44 ± 0.081 (treatment: MLN4924 1 uM, 8 h). In the same order, the values of HGVELHSDVIEYAKQKLDFFIRTS [PCMTD2] are 2.37 ± 0.2 and 2.48 ± 0.29. For the sequence QQLLPPFPSLHQSLPQNQCYMATT [EHMT1], the protein stability index was 3.29 ± 0.13 (treatment: DMSO) and 3.16 ± 0.17 (treatment: MLN4924 1 uM, 8 h).

For ADGIEVSYNACGVLSHIMFDGPEA [ZER1], the protein stability index reads like this: (treatment: DMSO) 2.93 ± 0.28; (treatment: MLN4924 1 uM, 8 h) 2.94 ± 0.27. In the same order, the values of IFRDNQWVGFDDVESFKTKVSYLK [CHIT1] are 2.54 ± 0.34 and 2.81 ± 0.24. For GGGGGGLPISTVREVALLRRLEAF [CDK4] the same measures were 3.19 ± 0.3 and 3.23 ± 0.34.

For SWIQLPPMQERRASFYACRLDKHL [KLHL14], the protein stability index was found to be 2.32 ± 0.29 (treatment: DMSO) and 2.26 ± 0.34 (treatment: MLN4924 1 uM, 8 h). In the same order, the values of SDPQLIVQLRFCGRQPCGRFLRAY [TRADD] are 2.35 ± 0.69 and 2.11 ± 0.27. Turning to HKYNTTSTSYSPLASLPLKADTKG [PLAGL1], the protein stability index reads like this: (treatment: DMSO) 4.23 ± 0.16; (treatment: MLN4924 1 uM, 8 h) 4.41 ± 0.2. Turning to LELSCDKFPPEEELQREWLGNREA [CPN1], the protein stability index (treatment: DMSO) amounted to 4.95 ± 0.25 and the protein stability index (treatment: MLN4924 1 uM, 8 h) was found to be 5.11 ± 0.16. For LTYACENGHTDVADVLLQAGADLE [ANKRD17] the same measures were 4.3 ± 0.16 and 4.68 ± 0.35.

In the case of KWMLGAEDLTPEDDMPIGRNVLEL [PTPRD], the protein stability index was 3.9 ± 0.12 (treatment: DMSO) and 3.92 ± 0.44 (treatment: MLN4924 1 uM, 8 h). For SQTEAHYSCQSKEILRYMKEFTLL [P2RY14] the same measures were 2.21 ± 0.15 and 2.3 ± 0.23.

Take FRNLVADRVLNYTSWSQHCPWEPQ [SPAG8]: the protein stability index was found to be 2.21 ± 0.21 (treatment: DMSO) and 2.36 ± 0.23 (treatment: MLN4924 1 uM, 8 h). Take PSVFDGLGDLLMPTMAPAGQPAPV [SNAP91]: the protein stability index by setting is: (treatment: DMSO) 3.54 ± 0.25; (treatment: MLN4924 1 uM, 8 h) 3.57 ± 0.2. For the sequence KGDSTIRELKAKLSGVEEELQRTK [SASS6], the protein stability index was 4.86 ± 0.32 (treatment: DMSO) and 4.58 ± 0.21 (treatment: MLN4924 1 uM, 8 h). In the same order, the values of CATDTKNVQFVFDAVTDVIIKNNL [GNAI1] are 2 ± 0.28 and 2.43 ± 0.22. For VNLQHLDLLNNKLVTLPVSFAQLK [LRRC59], the protein stability index (treatment: DMSO) is 2.12 ± 0.23 and the protein stability index (treatment: MLN4924 1 uM, 8 h) turned out to be 2.31 ± 0.3. In the same order, the values of ESGLGHFSLRVHTGCHKKLGPEAR are 3.24 ± 0.46 and 3.32 ± 0.24. In the case of LELLGATYVDKKRDLLGALKHWRR [FEM1A], the protein stability index by setting is: (treatment: DMSO) 2.48 ± 0.11; (treatment: MLN4924 1 uM, 8 h) 2.62 ± 0.3. For FFEILRLFFPVIYDVKYLMKSCKN [CNOT7] the same measures were 2.37 ± 0.9 and 2.87 ± 0.048. In the same order, the values of ILSEEGRRQQAKLKELQAIAERLG [KCNAB2] are 3.57 ± 0.38 and 3.73 ± 0.3. For SGCLRISIQKLSNESRYMIYEFWE [NECAB1] the same measures were 2.21 ± 0.95 and 2.64 ± 0.82. On to VYLSPRDDGYSTKDSYSSRDYPSS [RBMX], for which the protein stability index reads like this: (treatment: DMSO) 3.21 ± 0.27; (treatment: MLN4924 1 uM, 8 h) 3.38 ± 0.43. In the same order, the values of YNSSRFGEGVERELFVREPTGRLP [MYORG] are 3.62 ± 0.22 and 3.73 ± 0.43. For DSLLVVLDMDEGTLSFIVDGQYLG [SPSB4] the same measures were 2.52 ± 0.53 and 2.6 ± 0.69. In the case of HIDPDVLYPSLNVTSFDSVVPEKL [ALG2], the protein stability index by setting is: (treatment: DMSO) 3.83 ± 0.25; (treatment: MLN4924 1 uM, 8 h) 3.91 ± 0.21.

In the case of EVAAKNQSLEGDTTKGTSEMSEKR [MLH1], the protein stability index turned out to be 5.15 ± 0.26 (treatment: DMSO) and 5.46 ± 0.56 (treatment: MLN4924 1 uM, 8 h). In the case of DSVPFHLGWNSTERSLRLQARYHD [MYORG], the protein stability index (treatment: DMSO) stood at 3.59 ± 0.24 and the protein stability index (treatment: MLN4924 1 uM, 8 h) was found to be 3.51 ± 0.17.

On to YVVLAYTLPPASRFIIIFEQIRFV [SOAT1], for which the protein stability index by setting is: (treatment: DMSO) 3.27 ± 0.48; (treatment: MLN4924 1 uM, 8 h) 2.93 ± 0.53. In the same order, the values of CKSGYHPTKSHSFRAMCQNGKLVY [CFHR2] are 2.16 ± 0.18 and 2.38 ± 0.43. In the case of SLRKAIETVYAAYLPKNTHPFLYL [MLH1], where the note is “treatment: DMSO”, the protein stability index was determined as 3.76 ± 0.68. Regarding GREEKCVWKHGITPPLKNVRKKRF [TAF7L], the protein stability index was found to be 3.98 ± 0.34 (treatment: DMSO) and 4.03 ± 0.41 (treatment: MLN4924 1 uM, 8 h).

ICCDKCSVWQHIDCMGIDRQHIPD [KMT2E] came in with a protein stability index (treatment: DMSO) of 2.7 ± 0.28 and a protein stability index (treatment: MLN4924 1 uM, 8 h) of 2.87 ± 0.43. Regarding ARGLDDAAARGGQCPGLGPAPTPT [ZBED3], the protein stability index runs as follows: (treatment: DMSO) 4.65 ± 0.14; (treatment: MLN4924 1 uM, 8 h) 4.7 ± 0.25.
